Our source for the protease stability score values is the NTF2 design screens of Basanta et al. (2020).

This data set in a line: protease stability score; higher = more stable; yeast display proteolysis, trypsin and chymotrypsin.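 Also: relative to predicted unfolded state with 0 unfolded-like and 1 meaning tenfold more protease.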
On to “DEDRRHADEVLELFSEAFLTGNEEEMRKLADPHVRIDFNGRLKIGMETYKEEMDRFDHTEMRLESKHVHVFDGRVRIDGRLRIILRIGDKEIRHDHQVDILITKVDGRWIIKSMHIE”, for which the protease stability score turned out to be 2.53.
The result for “DEDRRIAEHLIKLYLQSTRTGDENSIRHLMDPNTRVIVGDKDRIGREAAEELLRRVDHLHDYKIEDIRFVGDFIDVEMRVDGEFDGVREHYRVILILFKVDGRWRIHLIEIR” reads 1.55; that for “DEDRRLMEELTRHRIDLKKTGNEELLRTLADPNTRALVNGKDMHGREQIATWLWQFREDLGVDHIDLEDFHVQGDKMEVHLDWKVNGQRIEVIVIIYIVDGRIKKEEMHFT”, 0.416.
With “DEDSELAQIYNDLWRHTMETGDEHLSRRLLDPEVRLIINGREFIGWSLAIEVEHRLFKRFDHVHIDLEHITIQGDKIHTNSTLHIHFNGVTFEHRIHISIKKVNGRWINHTQRIQ”, the protease stability score was determined as 0.801.
The result for “DEDSEMVWRMLEDWLHNFLTGNEELLEHLMDPNARFEQGDKEIHGREKIAKFLRKELEDLGVKIEFRDTSIKSINGRAHNDGTNIIRVNGREIRRDTRIDLTVIDGRIKEIRIEIN” reads 1.28; that for “DEDSEQARKFTELLFESIRTGDWKSLERLFDPNTRLEVGEFEHHGMEEATKFLIELRLEDFHIHSTKIDIQGEWIHIRLDGVERGYIGDKKRDTRSHIRLDNLKINGRWINQRLIIEIR”, 1.13.
Turning to “DEDSEVLSRILLHLTHHFSTGDFKEVTEMFDPHARAFVGDKELVGMELLRKFLHDLTKRLGVDHHDLRDDHIEIQGDKLRSEGKLRIDVNGREIKHHVHWILEKIDGRWVIREFRIV”, the protease stability score was determined as 1.23.
“DEDSKHVEHLMRLLIRLLITGDEDTLLNLIDPHARIDINGKEVHGREWAEKFIRRFERDLGVKHNHIEHIELQGDKAHVDFSLRIGDKMIQVHIDIWIVDGKLQSIRIKIK” yielded a protease stability score of 1.54.
As for “DEDSYNSHRALEDLWRDLETGDEENLNKLADPHARVKQGDKEFHGMHHWIHFLESLGITKVHVRIHRIQTQGDKVRIVGEIEFNGRRHHSIIFIEKINGVWLVHKMEIK”, the protease stability score turned out to be 1.41.
The result for “DEDTARKQVQIYKDNDPNQLVRMFDENARLKVGDQTVDGREELERWVKRLRTRVDRYSYKNVDIQGERVVIDMVMVVDGKQVEFVVEFVVEDGRIKNAKVQARNKDEETKLQEAIG” reads 1.37.
The result for “DEDTDWIREMHRRHTEALRTGDEDTLRDLMDPHVRIFQGDKIHIGMHDLAKFLKEWRIKEIRVDIKHIESQGDKLRFSGDVEVHFEFNGKEVDLKLKALIVIVKINGKWVFKEIHHI” reads 0.862.
In turn, “DEDTEAAIRILEDFTRHILTGDFERARELLDPHTRFDVNGVDLHGMDEVTRLLRIWKKRFDVWESDVHDVRSYDGRIHIDTHLRVRYDGVEEHTRTIFIFNKVNGRWLIEEIRVR” returned a protease stability score of 1.44.
Sequence “DEDTEAAREMLEIIVKSLFTGDEKSLLRLADPNWKLHQGNFSWHGRESVRRFHKEIRVHFDDIRVHRFSTINGRVHIDGHIHITVHIDGQTIHIDSDTTWHMVIINGKMHHAIIIHV” registered a protease stability score of 0.881.
The result for “DEDTEDLKRLIKLFVDLIRTGDWEELEKLLDPNVRLHFNGRDYHGRELALELMKVFGVDHIQLREVRVVNGKAENRTELIVNGREHEEHVIMEKIDGRWRIRSFEFR” reads 1.3; that for “DEDTEEMRRFLKAFIRALETGNFEETLRLLDPNVRIRIGDKQLIGREEWHKWRERVDHYEVDDIEIEDMRVIGNKVHVFGRVDIKLIIGDKEHQDRKEVHIIMLKVNGRWLIHEIEVH”, 1.91; that for “DEDTEEVRKADKIYIHYLLTGDEHKNNRLADPNVRLHWNGREFHGMELFTEAFREIRHELRFDHITHHHLRMFNGRLDSDTRVDGDINGVRTIFEMKLTLLKVDGRWVLKSTEIR”, 1.26.
The result for “DEDTEEWRHLLEEYREFIETGDEDYLRTMLDPHVRVVVNGRDHHGWKAFNFMLRHIRVRHVHIHDIRLFNGQVEVDSRIDGIVNGRRLIFRLDIVAFKIDGQWIAQSFTII” reads 1.65; that for “DEDTEIAFELVDLVMKSLKTGDEHLMLRLMDPHTRLEVGDKEHHGWEEILKELSEIRIHLEDVDHRDVRIYGEKIHVDVEVDITIEYNGRRTRVKTRLEVDILKVNGQWRVKQVSLK”, 2.07.
Regarding “DEDTEIALKLHRLILHFIHTGDWENFAKYLDPRTKLHVGEFNNVGMEEIRKTWKHLRLRIDMYDERRVEVIDGRLHVEGEIRSTVHIGDKELHFERDSNFILVVINGRVKRIEINIV”, the protease stability score came out at 1.47.
“DEDTEKAEKFVHSFLMAMLTGDEEELWKYLDPRVRTIIGDKHYHGREQTKKAWEELGIDHSDVERFHVHIQGDKVEVHIDLRVHVNGRSYDVHIILIVTKINGKWYIDTLIFRKV” displayed a protease stability score of 1.44.
The result for “DEDTEKHKELLEMLVVAYLTGDFRHWWDLADPHVKLDQGDKHLHGREDMVEWIRRFIKKFKNVQVKIRHIHHQGNKDNIDGILDVDGREYHVEIIIVLVDGVIRSEEIRVK” reads 1.87; that for “DEDTEKLEKMIEELFKLWLTGDEEKLTHLADPNMRVDVNGRDLHGRHLMSSLWRQIRIEDQRLRIRDWEFFDGRVTIHSHITVRGHINGRHEEITHDVRIVVDKINGRWIIREFRIH”, 1.27.
The result for “DEDTEKLKKSLEVIWRLLHTGDENSLEHLMDPNARLDINGVTQVGRTASKIIIDRFDHIRHIHINDVRFIDGRAHVHGKTDGIQGDKRYEVSMEIILLKINGRWIIHQFYTE” reads 1.38; that for “DEDTEKVERIAKEVINLHETGDWENWSKQADPHTRVELNVDGQHFEYIGREKFREALEWLGIKHSHFHHIEIIGDKLHVDGYSFFNGRRTRVELRFVIVNGRIKHQIIIIK”, 0.848.
The result for “DEDTEKVRWFFEVLKRASDTGNEEEELKLLDPNARYIFNGKNDHGRRAWERFKKNLGVKHVEIHPRDFDVVDGRIHIEIELRIHVDGREIRFDIEIIVEKFNGRWYLRSIHID” reads 0.376; that for “DEDTELAERWVELFRKSVETGDEHKLEKLLDPHVKLDIGDKRYHGRELAVDTLKTMIDEMRSDHVTIDRVDVFDGRVILHSRIESTVDGRRTELEMRIVARKIDGRWVVESLEIN”, 1.49; that for “DEDTELDETISREIIHAEKTGNEDWLTKLIDPNPRIEINGRIFHGMDFWLKFLKDMGVDHIDVKRDRAYNGVLDMDGYIIVNGREIRTHIHIVIVDGKATHIRIEIR”, 1.61.
As for “DEDTELLKHHLDIFRDAVRTGDEEKERKYADPDDRINVDGVIFHGWEESKRFYEHWRVKDFHVHDMKVQGDKADVESRLVVQINGREVIFRVKLIITKVNGRWKHTMLEIK”, the protease stability score amounted to 1.62.
Turning to “DEDTELMRHIIERLLRSSKTGDEDSMADLLDPNVRIVNEDERLHGRELASRFMYELRIHHFELTRFKVYDGKIDIDGIHDGEINGVRRRVWVEFISVKVNGKWQIKELRIG”, the protease stability score turned out to be 1.35.
The result for “DEDTELSKHFDDVFAEYVETGDEHSLRHLMDPNTRILVNGVDLVGWELVLDHLDRHLKEMRIKRVTTHEMRIYGDKVTIHSKLKMHIDGRDVDTDTEIIVKKVDGKWIMHFVNLH” reads 2.25; that for “DEDTELVYRIIKRLKEYIKTGDEDSIKELLDPNARIEVGDKEIHGRDRFAHMLVEIWSKDHKVELKDSRTFPNHLEYDGVLREDIEIDGKRIHRTRKLIVLVRKVNGRWYVEEIIFH”, 2.19; that for “DEDTENVLRALEQFDEKLLTGDWRSLEELADPHVRIDINGQDIHGRETHSEHFRRIKNLKLEHLDVHSFTVIGNKVELDTEIIGEIDGRRRIFRVRMRILKIDGRWVLHSVEIG”, 1.46.
With “DEDTEQAERVSHIMLHLYHTGDEEKFNHLADPNVRVEVNGVEIIGRHAFMKHLREIRLHDLRIEEVHIRVFNGRLRIEIKGRMDGHFNGVTKRTEVDILIIVLKVDGRWHVHSFSETIH”, the protease stability score is 1.6.
The result for “DEDTEQLEWILKLHLEISRTGDEHSEHHMVDPNTRIEVGDKELHGREEIVKWFAHIRIDHIDIKRYHIFNGRVRIDGRVEGNVDGRETTMRVIFLSDKFNGRWRHRSVIVR” reads 1.53; that for “DEDTEQVERALHLWVKLVQTGNEEVIRHLLDPNVRIIVNGVDYHGRSALDELQRRVDVNTWKRVRLHDASVYNGRMHIDGEIDTQEIVGDKRIIIHTKVDMVSSKVNGKWIFHSMIFH”, 0.848.
Sequence “DEDTESATKALQLFIHLFITGDEEQLLRLLDPNARNDIGDYHRHGREFLEFFVERVKNVTFHLHDMRLELIGDKIHLIIHGDEWVNGVRLRTELVILMEKVNGRWVIRSVRVIFR” registered a protease stability score of 1.75.
The sequence “DEDTEVIERSITHWMKVLETGDWEDIERNADPNARMDINGREFHGREEVSRHLREDLDRLGIERVRVEIKHYRVQGEFIDIHGILRQGEYESKIHVRASKINGKWVLESLEVV” showed a protease stability score of 0.078.
The result for “DEDTHDNRHALELLLRFLETGDEDSLRELADPNARLSVNGRNQHGREDLFSTWSEMGVDHMEIKSHRIVDGRLLLHGHIKFNGRREDVHIFMVKIDGRWYIEEVKIL” reads 1.56; that for “DEDTHDTKKAVEEFIHTVRTGDEHSLRRQLDPNARVEVGDKEQHGRLFIEWFIRMLGIDNVDVRVHDHHVYDGRVEVDLLLHVDGRDFRVNIVWDKINGQWRNRMVIFR”, 1.17; that for “DEDTHEFRHFIELRRHNLETGNERALAELLDPNVRILFDGVDIVGRDSWIKHLRELGYEQVDSRVNIKRLEIWNGRAHMDGRVRRHFDGKTTEVDVHLVLVKFNGRWVIESIHNH”, 0.555.
The result for “DEDTHKLDKHVKEVLTAWETGDEEMLLRLIDPDARITIGDKEVIGMEEALKHWKEIRIKHLELTDFKLVDGQLDSKVQVHSEVNGRRFETTIRIVLHKINGKWRIRSMTFI” reads 1.34.
Sequence “DEDTHLAKVVLEIFLHLMRTGDFKETWEYADPHVRIDIGDKHLHGREELARLMEELGIDHFEIRDVHLQGDKLHIRTDVDFNGVRTHVVFIILKVDGRWVLTHVRIE” returned a protease stability score of 1.46.
The result for “DEDTHMMELFNKTLHHVERTGDETLLNKLMDPHARLEIGDKHNHGRENVERERRRLLKELGHTQVEFRIREIRFQGDKLTIHGHTLVNGVHFDIRLLVWKVDGRWHMESFHLE” reads 1.46.
The result for “DEDTHMVERALTLLYKTLHTGDEDLYRELIDPHVRVEINGQELIGRELLIEWFREMVERFPNIRIEIHDIRLFDGRLESDSRLHYGDKSREVHLIARKVNGQWRLESLKVE” reads 1.41; that for “DEDTHNASEALEYLWRVIMTGDEEQVERMADPNVRVVFNGKHLHGREWFLRVLLHIRFDRVRIEHIHTQGEKVRTDSKSDIEFDGRRIEVDIEIYIHKINGRWIVKMFIFR”, 2.89; that for “DEDTHRLELVLDLWSFAMLTGDEETLTKLIDPNMRIEIGDKIAHGREKLHEMLREIRIQIHHVHLDDYRVYGNKITLHVHIRMTLHVDGRTIHTELKTEIIIHKIDGKWVFHKVRFE”, 1.28.
As to “DEDTHVMEHALREWSHIFHTGDEDRLLELMDPRTRATVNGVDLHGMEEITRLETEIIRSHGMKFRTFLLEDFKTIDGKIHVHSRLNVDINGKERELRVRIIAKKVNGRWVVTKVEVG”, the protease stability score came out at 0.952.
